Ends that are not written are not given here.
How the values were obtained:
[1] = ζ potential of carbon nanostructures (Zetasizer); type: physicochemical
Description: The resulting PEI-SWCNT suspension was characterized by measuring the absorbance spectra on a UV-vis absorbance spectrophotometer (UV-2600, Shimadzu). The quality of the SWCNT suspension was determined by analyzing absorbance peaks at 632 nm. This measurement was performed with triplicates. The concentration of the PEI-SWCNT was determined spectrophotometrically using the absorption value at 632 nm and utilizing the equation (absorbance at 632 nm/extinction coefficient of 0.036)=mg L^−1. The final concentration obtained after purification ranged from 18 to 30 mg/L. The nanoparticle ζ potential was measured using a Zetasizer (Nano ZS, Malvern Instruments) in samples suspended in 10 mM TES buffer pH 7.0, with 0.1 mM NaCl. The hydrodynamic size was measured using Zetasizer (Nano ZS, Malvern Instruments) in samples suspended in a 10 mM TES buffer at pH 7.
Characterization of Nanomaterials. All nanomaterials were characterized by absorbance UV-vis spectroscopy (UV-2600 Shimadzu), hydrodynamic size (Nano S), and ζ potential (Nano ZS). The nanomaterial ζ potential and hydrodynamic diameter were measured in a 10 mM TES buffer (pH 7.0). The ζ potential measurements were performed in 0.1 mM NaCl to improve conductivity and analyzed by the Hückel approximation model.^111 CD fluorescence emission was collected using a fluorescence spectrometer (Horiba PTI QM-400). The stepwise synthesis of TP-β-CDs was analyzed using FTIR (Thermo Nicolet 6700 FTIR).

[2] = test system: Arabidopsis leaf mesophyll tissue; test: Plant cell viability assay (propidium iodide, percentage of dead cells); type: in vivo, Arabidopsis thaliana
Description: Impact of Targeted Nanomaterials on Plant Cell Viability. We investigated the viability of plant cells treated with increasing concentrations of targeted and nontargeted nanomaterials by measuring the percentage of dead plant cells. Arabidopsis leaf tissues were treated with targeted nanomaterials at 20, 100, 500 mg/L concentrations of TP-β-CDs or 2, 5, 10 mg/L of TP-pATV1-SWCNTs (FIG. 6, Table 1). Biocompatibility assays were performed up to 5 days of nanocarrier exposure before control Arabidopsis plants experienced the onset of leaf senescence marked by significant changes in chlorophyll levels (FIG. 15A). On day 7, significant differences in chlorophyll were detected in control Arabidopsis plants without nanomaterials. […] Therefore, subsequent experiments assessing the impact of targeted nanocarriers on plant cell and molecular biology were focused on biocompatible concentrations of 20 mg/L for TP-β-CDs and 2 mg/L for TP-pATV1-SWCNTs.
The percentage of intact cells was determined in Arabidopsis thaliana leaf tissues treated with TP-β-CD (20, 100, 500 mg/L) or TP-pATV1-SWCNT (2, 5, 10 mg/L) from one to five days. The nuclei of dead cells were stained with propidium iodide (PI) diluted to 1× concentration manufactures (Plant cell viability assay kit, PA0100, Sigma-Aldrich). Leaf discs were collected and incubated in PI dye for 15 minutes before confocal analysis. PI can enter cells with damaged membranes, and bind to double-stranded nucleic acids in non-viable cells. […] The total number of cells was determined using chloroplast autofluorescence to identify the leaf mesophyll cell boundaries. The leaf disc surface was washed with DI water to remove the residual dye and mounted on a microscope glass slide for imaging by laser scanning confocal microscope (TCS SP5, Leica Microsystems, Germany). Confocal imaging settings were as follows: ×40 wet objective (Leica Microsystems, Germany), propidium iodide dye excitation by a 543 nm laser (40% power), and PMT emission detection range set to 590-630 nm with Pinhole size set to 3 airy units.

isolated chloroplasts = test: Intact chloroplast analysis by DIC microscopy; design: species or system Arabidopsis thaliana; settings: 1 and 5 days, 20 mg/L / 2 mg/L
Text: Interactions of Targeted Carbon Nanostructures with Plant Cell and Chloroplast Membranes. Damage to plant lipid membranes may cause ion and molecule permeability changes across the membrane, interruption of metabolic processes, intracellular signaling, and trafficking of biomolecules.^65,66 The application of targeted nanostructures with high charge allows penetration of plant cell barriers and localization inside organelles that could cause disruption in lipid membrane integrity. Plant cell membrane intactness in leaves treated with TP-β-CDs or TP-pATV1-SWCNTs (Table 1) was assessed by staining dead cells with propidium iodide (PI) dye followed by imaging under confocal microscopy (FIG. 7A). PI is a nonpermeable dye that only crosses the cell membranes when they are damaged. The overall percentage of intact cells without PI stained nuclei was calculated relative to the total number of cells (FIG. 7B). […] Both TP-β-CDs and TP-pATV1-SWCNTs maintained more than 93% of plant cells with intact membranes after 1 and 5 days of exposure, similar to controls without nanoparticles (FIG. 7B). […]
Identification of intact chloroplast was performed as reported in previous studies^4,5 with some modifications. […] The average from ten images from each of the seven biological replicates was quantified for calculating the average percentage of intact chloroplasts.

Arabidopsis leaf tissues = test: Chlorophyll content index (SPAD) measurements; type: in vivo, Arabidopsis thaliana; settings: 20 mg/L / 2 mg/L
Description: Chlorophyll content index (CCI) was measured in plants treated one and five days after treatment with nanomaterials and buffer control solution (10 mM TES, pH 7.0). Three-week-old Arabidopsis plants were exposed to β-CD, TP-β-CD, pATV1-SWCNT, or TP-pATV1-SWCNT. The CCI measurements were performed using chlorophyll meters (SPAD-502 plus, Konica Minolta, Tokyo, Japan; CCI readout resolution: 0.1) with each leaf being measured three times for CCI readouts. The onset of leaf senescence was determined by a marked decrease in chlorophyll levels (FIG. 14B). Experiments before 4-weeks of development are ideal to avoid plant senescence symptoms such as the increase in programmed cell death rates and decrease in chlorophyll content.^6-9

chloroplast DNA = settings: in vivo
Description: Chloroplasts were isolated from Arabidopsis leaves through a centrifugation gradient method in sucrose buffer.^1-3 Intact chloroplasts were isolated from leaves exposed to targeted and non-targeted CDs and pATV1-SWCNT, and buffer as control (10 mM TES pH 7.3) in 0.1% Silwet (v/v) for one day or five days. Following foliar spray with nanomaterials as explained above, 4 g of leaf tissue was collected from seven plants per treatment. Treated tissue was harvested, and ground in ice-cold 1× chilled sucrose buffer (pH 7.3, 28 mM Na2HPO4, 22 mM KH2PO4, 2.5 mM MgCl2, 400 mM sucrose, and 10 mM KCl). […]
DNA was extracted from plant leaf tissue and prepared using a Quick-DNA Plant/Seed DNA Miniprep kit (Zymo) in leaf samples treated with nanomaterials from one to five days. […] The DNA extraction was performed according to the manufacturer's instructions (zymoresearch.com) and concentrations were measured using a Nanodrop ND-1000 Spectrophotometer. […]
We determined the amount of oxidative DNA damage in plant leaves treated with nanomaterials for one day or five days using an enzyme-linked immunosorbent assay (ELISA) for 8-hydroxydeoxyguanosine (8-OHdG). The OxiSelect™ Oxidative DNA Damage ELISA Kit (Cat# STA-320, Cell Biolabs, inc.) quantifies the amount of 8-OHdG in isolated DNA samples from plant leaf tissue or isolated chloroplast suspensions. […]

Substance: TP-β-CD: carbon dots with β-cyclodextrin molecular baskets covalently bonded to chloroplast targeting peptide MASSMLSSATMVGGC (SEQ ID NO:5) (also: covalently bonded to carbon dots with β-cyclodextrin, site not given here)
- ζ potential ([1]; 10 mM TES buffer, pH 7.0): −36.4±3.4 mV
- ζ potential, magnitude ([1]; higher in magnitude than): > 30 mV
- biocompatible concentration ([2]; Arabidopsis leaves, up to 5 days): 20 mg/L
- percentage of dead cells ([2]; TP-β-CD 20 mg/L, TP-pATV1-SWCNT 2 mg/L, summary): 6%
- percentage of dead cells compared to control plants ([2]; after 5 days of exposure, TP-β-CDs 20 mg/L, TP-pATV1-SWCNTs 2 mg/L): no significant differences
- plant dead cells relative to controls without nanoparticles ([2]; day 1, TP-β-CDs 20 mg/L, TP-pATV1-SWCNTs 2 mg/L): no significant differences
- percentage of dead cells ([2]; day 5, 100 mg/L): 20.0±4.8%
- percentage of dead cells ([2]; day 5, 500 mg/L): 23.4±4.8%
- chloroplast membrane intactness (isolated chloroplasts): did not affect chloroplast membrane damage
- chlorophyll content index (CCI) (Arabidopsis leaf tissues; after 1 day of exposure): 35.5±1.4
- chlorophyll content index (CCI) (Arabidopsis leaf tissues; after 5 days of exposure): 38.0±2.8
- oxidative damage to isolated chloroplast DNA (chloroplast DNA): not affected

Reference: patent US20230313217A1, “CHLOROPLAST TARGETING PEPTIDES AND CONJUGATES AND COMPOSITIONS THEREOF” (The Regents of the University of California, priority 2021, published 2023)
